Laboratory results taken from patent US20230042176.

B1: Ube3a, endogenous, in primary mouse cortical neurons (WT against Ube3a m-/p+ mice) (protein)
chain: MATACKRSPGESQSEDIEASRMKRAAAKHLIERYYHQLTEGCGNEACTNEFCASCPTFLRMDNNAAAIKALELYKINAKLCDPHPSKKGASSAYLENSKGASNNSEIKMNKKEGKDFKDVIYLTEEKVYEIYEFCRESEDYSPLIRVIGRIFSSAEALVLSFRKVKQHTKEELKSLQEKDEDKDEDEKEKAACSAAAMEEDSEASSSRMGDSSQGDNNVQKLGPDDVTVDIDAIRRVYSSLLANEKLETAFLNALVYLSPNVECDLTYHNVYTRDPNYLNLFIIVMENSNLHSPEYLEMALPLFCKAMCKLPLEAQGKLIRLWSKYSADQIRRMMETFQQLITYKVISNEFNSRNLVNDDDAIVAASKCLKMVYYANVVGGDVDTNHNEEDDEEPIPESSELTLQELLGDERRNKKGPRVDPLETELGVKTLDCRKPLISFEEFINEPLNDVLEMDKDYTFFKVETENKFSFMTCPFILNAVTKNLGLYYDNRIRMYSERRITVLYSLVQGQQLNPYLRLKVRRDHIIDDALVRLEMIAMENPADLKKQLYVEFEGEQGVDEGGVSKEFFQLVVEEIFNPDIGMFTYDEATKLFWFNPSSFETEGQFTLIGIVLGLAIYNNCILDVHFPMVVYRKLMGKKGTFRDLGDSHPVLYQSLKDLLEYEGSVEDDMMITFQISQTDLFGNPMMYDLKENGDKIPITNENRKEFVNLYSDYILNKSVEKQFKAFRRGFHMVTNESPLKYLFRPEEIELLICGSRNLDFQALEETTEYDGGYTRESVVIREFWEIVHSFTDEQKRLFLQFTTGTDRAPVGGLGKLKMIIAKNGPDTERLPTSHTCFNVLLLPEYSSKEKLKERLLKAITYAKGFGML
B2: UBE3A, recombinant, as used in the in vitro ubiquitination assay (ubiquitination kit K-230, Boston Biochem) (protein)
chain: MEKLHQCYWKSGEPQSDDIEASRMKRAAAKHLIERYYHQLTEGCGNEACTNEFCASCPTFLRMDNNAAAIKALELYKINAKLCDPHPSKKGASSAYLENSKGAPNNSCSEIKMNKKGARIDFKDVTYLTEEKVYEILELCREREDYSPLIRVIGRVFSSAEALVQSFRKVKQHTKEELKSLQAKDEDKDEDEKEKAACSAAAMEEDSEASSSRIGDSSQGDNNLQKLGPDDVSVDIDAIRRVYTRLLSNEKIETAFLNALVYLSPNVECDLTYHNVYSRDPNYLNLFIIVMENRNLHSPEYLEMALPLFCKAMSKLPLAAQGKLIRLWSKYNADQIRRMMETFQQLITYKVISNEFNSRNLVNDDDAIVAASKCLKMVYYANVVGGEVDTNHNEEDDEEPIPESSELTLQELLGEERRNKKGPRVDPLETELGVKTLDCRKPLIPFEEFINEPLNEVLEMDKDYTFFKVETENKFSFMTCPFILNAVTKNLGLYYDNRIRMYSERRITVLYSLVQGQQLNPYLRLKVRRDHIIDDALVRLEMIAMENPADLKKQLYVEFEGEQGVDEGGVSKEFFQLVVEEIFNPDIGMFTYDESTKLFWFNPSSFETEGQFTLIGIVLGLAIYNNCILDVHFPMVVYRKLMGKKGTFRDLGDSHPVLYQSLKDLLEYEGNVEDDMMITFQISQTDLFGNPMMYDLKENGDKIPITNENRKEFVNLYSDYILNKSVEKQFKAFRRGFHMVTNESPLKYLFRPEEIELLICGSRNLDFQALEETTEYDGGYTRDSVLIREFWEIVHSFTDEQKRLFLQFTTGTDRAPVGGLGKLKMIIAKNGPDTERLPTSHTCFNVLLLPEYSSKEKLKERLLKAITYAKGFGML

Assays:
[1] = molecular target: BK, endogenous, in primary mouse cortical neurons, Q08460
Chain of BK, endogenous, in primary mouse cortical neurons, Q08460 (Q08460 whole entry): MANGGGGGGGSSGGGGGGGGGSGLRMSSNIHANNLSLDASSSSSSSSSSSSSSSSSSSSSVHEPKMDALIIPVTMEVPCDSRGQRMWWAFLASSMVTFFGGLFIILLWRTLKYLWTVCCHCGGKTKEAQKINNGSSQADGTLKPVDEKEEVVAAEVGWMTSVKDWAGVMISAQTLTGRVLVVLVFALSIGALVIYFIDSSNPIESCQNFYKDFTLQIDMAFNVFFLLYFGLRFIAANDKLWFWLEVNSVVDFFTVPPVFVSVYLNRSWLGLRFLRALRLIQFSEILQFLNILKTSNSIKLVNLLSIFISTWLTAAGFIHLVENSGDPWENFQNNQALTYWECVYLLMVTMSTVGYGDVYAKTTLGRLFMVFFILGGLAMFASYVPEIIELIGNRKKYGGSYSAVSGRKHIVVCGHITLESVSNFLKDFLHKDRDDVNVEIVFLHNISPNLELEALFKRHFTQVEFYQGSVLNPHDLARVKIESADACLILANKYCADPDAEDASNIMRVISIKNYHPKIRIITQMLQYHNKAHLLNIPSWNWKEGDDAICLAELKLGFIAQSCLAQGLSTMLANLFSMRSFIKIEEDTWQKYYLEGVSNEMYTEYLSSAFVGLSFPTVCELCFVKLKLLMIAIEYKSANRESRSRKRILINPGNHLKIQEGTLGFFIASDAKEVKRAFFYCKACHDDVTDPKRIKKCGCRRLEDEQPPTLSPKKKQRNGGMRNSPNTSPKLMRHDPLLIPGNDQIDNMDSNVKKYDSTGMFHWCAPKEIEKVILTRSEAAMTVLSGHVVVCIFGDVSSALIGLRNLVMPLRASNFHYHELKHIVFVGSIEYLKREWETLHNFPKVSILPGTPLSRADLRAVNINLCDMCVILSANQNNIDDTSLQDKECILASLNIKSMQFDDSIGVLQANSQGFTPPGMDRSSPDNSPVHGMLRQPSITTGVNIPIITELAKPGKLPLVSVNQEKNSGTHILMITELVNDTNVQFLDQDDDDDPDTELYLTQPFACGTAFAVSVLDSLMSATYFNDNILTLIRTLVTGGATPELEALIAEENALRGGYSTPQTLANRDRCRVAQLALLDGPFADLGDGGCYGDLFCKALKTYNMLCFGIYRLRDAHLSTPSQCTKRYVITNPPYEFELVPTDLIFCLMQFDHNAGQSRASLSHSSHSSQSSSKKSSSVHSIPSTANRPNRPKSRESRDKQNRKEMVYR

[2] = molecular target: Flag-tagged BK (Flag-BK), overexpressed in HEK293 cells

Protein | endogenous BK ubiquitination (BK IP, ubiquitin antibody blot, primary mouse cortical neurons) [1] | in vitro ubiquitination assay (E1 Ube1, E2 UbcH5c, HA-Ub) [2]
B1 | BK ubiquitination by UBE3A was further confirmed ... by assessing endogenous BK ubiquitination using mouse cortical neurons derived from either WT or Ube3a^m-/p+ mice (FIGS. 11D-11E) | –
B2 | – | BK ubiquitination by UBE3A was further confirmed by an in vitro ubiquitination assay using recombinant proteins (FIG. 11C)
